B1: recombinant CAL1(841-979) (domain or fragment, Drosophila melanogaster, UniProt Q9VEN2 841-979, looked up)
chain: GGDPDCTVVTSTTGCEPPASERQEIPATIKITKRGILLHSPSAPEGASFTLTEQGLGKIIGERWARKYLKYHIGSRSFDSRHSVYYQPTPQLAAALSAPQDAQNIGNISGSSASDDDIFEQINRYGTVYSILENNSGDK
notes: also called CAL1 monomer fragment; source: recombinant, vector pEC-K-3C-His-GST
B2: CAL1-V5 (natural protein, Drosophila melanogaster, UniProt Q9VEN2 1-979, looked up)
chain: MANAVVDEETLEAMVYERSKAWSSKMADFASLEDGMEIDVAEFDNLFHGEDEDPDLDDVAKEAVEDNVPDEAKLEMGHINATSVTELTLILCANEDNEAKAEIEEILNQTVPVVEEHKRKWREAGLDRILDTFDEKQIEHHVGRWMRRHNSVYLEASPPKYLPPHHNSISDESDESMHSIDTARYIQQSRRRNAHMTNKNMTTIKMYRKHSHKRDELRAKYAYGDEQEHRHHMQAVLLRRRERERQLAYLASTPMQCVYSSGHHMRRKNLRKRRINSWMFDSASSSEEDTSFGGCDCHSCRRHYALSRSVYQSCPYGRGQREYHHRQMASRTMHTMRRQHTFDMEMDLRPRLPENECSCCNSDRLCSNVIHIANSSTEEWVVENRSNHLTQETQEKTRKQKHQPMDARKVSHQPVCSKGHEQKPLSSKATSVSKLVLSKEKYMQMFDSESSDEDNALAKKGLLCCSDKKKGMTFPTPNAAGKITHPTSSAKKAIRKEARPNGLAQIQEEGPTATNSPIESTYLPVAHMKSVSIDGSSGTSATFESPAKKAPKRGIRETSPLNGNELQQLISTIPIADEKASSLMEKVDNCIGRESFDDRNKDFMHMENSSTKTAVEKSTKQKRVSGKKSEIPKSIITNNEILEKNSTETLSEKQVAAKAKKQSVRKTGATGKPSTSRLKKSEKTKTTSSVTSTSKLEQVREEESDVSSEVLAKPKPQCSTTASILKQGGDGASNSEDDLQIALAMSKATYKEEQQKRKKTKREPSNKQPQSPAEKSMTVFNNQSVACNSTALANDTACYRVLPKRRGVKRAAAVSTTEEKTATNSSSSPTSSLEEMGSPTGGDPDCTVVTSTTGCEPPASERQEIPATIKITKRGILLHSPSAPEGASFTLTEQGLGKIIGERWARKYLKYHIGSRSFDSRHSVYYQPTPQLAAALSAPQDAQNIGNISGSSASDDDIFEQINRYGTVYSILENNSGDK
notes: CAL1, Drosophila dCENP-A-specific chaperone; also called V5-tagged CAL1; source: U2OS-LacO cells, transiently transfected, in cells; not shown: V5, C-terminal, kept
B3: recombinant dCENP-A(101-225) (domain or fragment, Drosophila melanogaster, UniProt Q9V6Q2 101-225, looked up)
chain: QQESKTRAAGPVAAQNQTRRRKAANPMSRAKRMDREIRRLQHHPGTLIPKLPFSRLVREFIVKYSDDEPLRVTEGALLAMQESCEMYLTQRLADSYMLTKHRNRVTLEVRDMALMAYICDRGRQF
notes: also called dCENP-A lacking the N-terminal tail; source: recombinant, T7-promoter vector pET3a
B4: recombinant His-dCENP-C(1264-1411) (domain or fragment, Drosophila melanogaster, UniProt Q9VHP9 1264-1411, looked up)
chain: GPVVFSTPLRDEQEEASTKLMQWLRGVGDAPPSASMSDENASVSSANELIFCQVDGIDYAFYNTKEKAMLGYMRFKPYQKRSMKQAKVHPLKLLVQFGEFNVETLAVGEEKEVHSVLRVGDMIEIDRGTRYSIQNAIDKVSVLMCIRS
notes: dimer by SEC-MALS; source: recombinant, T7-promoter vector; not shown: His, N-terminal, kept

Assays:
[1] = molecular target: B4; assay: mass spectrometry (iBAQ peptide intensities) of the complex; ratio of iBAQ intensities of the two fragments within the recombinant His-dCENP-C(1264-1411)/CAL1(841-979) complex; settings: both partners purified
[2] = molecular target: B4; assay: SEC-MALS; recombinant proteins; Superdex 200 10/300 Increase GL, 50 mM HEPES pH 8.0, 150 or 300 mM NaCl, 1 mM TCEP, 22°C, 100 μl of 1-5 mg/ml; settings: both partners purified
[3] = molecular target: T1, dCENP-A^C-GFP-LacI (Drosophila melanogaster, UniProt Q9V6Q2 1-202; P02299 116-136); assay: LacI/LacO tethering and recruitment assay (immunofluorescence); bait fused to GFP-LacI tethered to chromosomal LacO arrays in human U2OS cells; HA- or V5-tagged prey transiently co-expressed; IF 48 h after transfection, prey intensity at the LacO spot or % of cells; no third Drosophila centromere protein co-expressed; settings: partners not purified
T1 construct: Drosophila CENP-A, N, L1 and α2 domains, residues 1-202; Drosophila histone H3, C region, residues 116-136; also called dCENP-A^C chimera; source: U2OS-LacO cells, transiently transfected, in cells; not shown: GFP-LacI (LacI lacking 11 C-terminal amino acids), C-terminal, kept

[4] = molecular target: T2, recombinant CAL1(1-160) (Drosophila melanogaster, UniProt Q9VEN2 1-160); assay: SEC-MALS; recombinant proteins; Superdex 200 10/300 Increase GL, 50 mM HEPES pH 8.0, 150 or 300 mM NaCl, 1 mM TCEP, 22°C, 100 μl of 1-5 mg/ml; settings: both partners purified
T2 construct: CAL1, residues 1-160; the vector name points to a 3C protease site; monomer by SEC-MALS; also called monomeric N-terminal fragment of CAL1; source: recombinant, T7-promoter vector pEC-K-3C-His-GST
T2 sequence (looked up): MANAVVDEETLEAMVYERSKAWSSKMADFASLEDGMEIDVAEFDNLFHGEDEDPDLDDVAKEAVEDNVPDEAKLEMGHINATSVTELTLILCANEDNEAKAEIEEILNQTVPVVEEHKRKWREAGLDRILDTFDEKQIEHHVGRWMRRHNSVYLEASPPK

[5] = molecular target: T3, recombinant dH4 (Drosophila melanogaster, UniProt P84040 1-103); assay: as above; settings: both partners purified
T3 construct: Drosophila histone H4 (dH4); source: recombinant, T7-promoter vector pET3a (from Karolin Luger)

[6] = molecular target: the molecule itself; assay: as above

T1 sequence (Q9V6Q2 other isoform, or with tags, fused parts or gaps): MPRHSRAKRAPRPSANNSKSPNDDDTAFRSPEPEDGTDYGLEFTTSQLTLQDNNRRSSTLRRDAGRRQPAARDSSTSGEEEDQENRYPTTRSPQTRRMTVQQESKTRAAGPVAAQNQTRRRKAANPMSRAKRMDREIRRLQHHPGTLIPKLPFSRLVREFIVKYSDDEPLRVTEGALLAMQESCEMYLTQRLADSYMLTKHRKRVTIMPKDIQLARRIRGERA

B1
stoichiometry N [1]: ~0.5 CAL1 chains per dCENP-C chain
stoichiometry N [2]: 0.5 CAL1 chains per dCENP-C chain

B2
CAL1 recruitment relative to wild-type dCENP-A [3]: 60%

B3
binding result [4]: binds
binding result [5]: binds

B4
stoichiometry N [6]: 2
